From paper PMC9958909, “Insight into the Structural Basis for Dual Nucleic Acid—Recognition by the Scaffold Attachment Factor B2 Protein”

Experiments:
[1] = target: SAFB2 SAP domain (21-70), wild type (human) (UniProt Q14151); test: SEC; preparative size exclusion on HiLoad 16/600 SD 75 in 25 mM sodium phosphate, 150 mM NaCl, 0.02% NaN3, pH 6.5; size from calibration
SAFB2 RRM (404-485) [2] = target: T1, SAFB2 RRM (404-485) (Homo sapiens, UniProt Q14151 404-485); test: NMR titration; significant CSPs of RNP residues; NMR: 20 mM BisTris, 150 mM NaCl, pH 6.5, 5% D2O, 298 K (RRM plus 2 mM TCEP). EMSA: 25 mM sodium phosphate, 150 mM NaCl, 0.02% NaN3, pH 6.5, 10 mM MgCl2, 0.6 ug; settings: protein: recombinant; tags: N-terminal GAM left after TEV cleavage (His6-Trx removed)
SAFB2 SAP WT (21-70) [3] = target: T2, SAFB2 SAP WT (21-70) (Homo sapiens, UniProt Q14151 21-70); test: NMR titration; CSP as for 16mer; NMR: 20 mM BisTris, 150 mM NaCl, pH 6.5, 5% D2O, 298 K (RRM plus 2 mM TCEP). EMSA: 25 mM sodium phosphate, 150 mM NaCl, 0.02% NaN3, pH 6.5, 10 mM MgCl2, 0.6 ug; settings: protein: recombinant; tags: N-terminal GAM left after TEV cleavage (His6-Trx removed); blunt
T2 chain: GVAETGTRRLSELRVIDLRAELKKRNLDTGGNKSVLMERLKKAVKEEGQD

SAFB2 SAP K53A/S54A = target: T3, SAFB2 SAP K53A/S54A (Homo sapiens, UniProt Q14151 21-70, K53A;S54A); test: NMR titration; 6x DNA; no significant CSPs; NMR: 20 mM BisTris, 150 mM NaCl, pH 6.5, 5% D2O, 298 K (RRM plus 2 mM TCEP). EMSA: 25 mM sodium phosphate, 150 mM NaCl, 0.02% NaN3, pH 6.5, 10 mM MgCl2, 0.6 ug; settings: protein: recombinant; tags: N-terminal GAM left after TEV cleavage; blunt
T3 chain: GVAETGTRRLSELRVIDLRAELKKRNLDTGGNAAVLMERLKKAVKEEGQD

SAFB2 SAP WT (21-70) [4] = target: T2, SAFB2 SAP WT (21-70); test: EMSA; 0-40 uM SAP; yeast tRNA, 10 mM MgCl2; slight preference for AT over GC; apparent micromolar affinity; NMR: 20 mM BisTris, 150 mM NaCl, pH 6.5, 5% D2O, 298 K (RRM plus 2 mM TCEP). EMSA: 25 mM sodium phosphate, 150 mM NaCl, 0.02% NaN3, pH 6.5, 10 mM MgCl2, 0.6 ug; settings: protein: recombinant; tags: N-terminal GAM left after TEV cleavage (His6-Trx removed); label: 5'-6-FAM on fw strand; blunt
SAFB2 RRM (404-485) [5] = target: T1, SAFB2 RRM (404-485); test: NMR titration; CSPs equal to A7/C7; NMR: 20 mM BisTris, 150 mM NaCl, pH 6.5, 5% D2O, 298 K (RRM plus 2 mM TCEP). EMSA: 25 mM sodium phosphate, 150 mM NaCl, 0.02% NaN3, pH 6.5, 10 mM MgCl2, 0.6 ug; settings: protein: recombinant; tags: N-terminal GAM left after TEV cleavage (His6-Trx removed); blunt
SAFB2 SAP WT (21-70) [6] = target: T2, SAFB2 SAP WT (21-70); test: NMR titration; up to 6x DNA; fast exchange; NMR: 20 mM BisTris, 150 mM NaCl, pH 6.5, 5% D2O, 298 K (RRM plus 2 mM TCEP). EMSA: 25 mM sodium phosphate, 150 mM NaCl, 0.02% NaN3, pH 6.5, 10 mM MgCl2, 0.6 ug; settings: protein: recombinant; tags: N-terminal GAM left after TEV cleavage (His6-Trx removed); blunt

T1 sequence (Q14151 404-485): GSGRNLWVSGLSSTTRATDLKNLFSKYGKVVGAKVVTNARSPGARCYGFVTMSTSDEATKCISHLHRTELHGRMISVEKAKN

SAFB2 SAP domain (21-70), wild type (from UniProt Q14151 21-70) (domain or fragment)
stoichiometry N [1]: 2

AAAAAAA (ssRNA) [A7]
binding result (SAFB2 RRM (404-485) [2]): binds

CCCCCCC (ssRNA) [C7]
binding result (SAFB2 RRM (404-485) [2]): binds

B1: dsAT9mer (dsDNA)
DNA 1: CAATATAAC
DNA 2: GTTATATTG
binding result (SAFB2 SAP WT (21-70) [3]): binds
binding result (SAFB2 SAP K53A/S54A): no binding

B2: dsAT13mer (dsDNA)
DNA 1: GCAATAAATACG
DNA 2: CGTATTTATTGC
binding result (SAFB2 SAP WT (21-70) [4]): binds

B3: dsGC16mer (dsDNA)
DNA 1: CGCCCCCGCGCCCGCG
DNA 2: CGCGGGCGCGGGGGCG
binding result (SAFB2 RRM (404-485) [5]): binds

B4: dsAT16mer (dsDNA)
DNA 1: GCGCACAATATAACGC
DNA 2: GCGTTATATTGTGCGC
binding result (SAFB2 RRM (404-485) [5]): binds
binding result (SAFB2 SAP WT (21-70) [6]): binds
